System: MS2 coat protein
Test: apparent KD of MS2 coat protein; higher = weaker reporter binding
Conditions: Eterna round: R107
How it was run: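 Apparent KD is reported per design as the median of normalised binding-curve fits across its clusters. The RNA switches were made by on-chip transcription from Illumina sequencing clusters. SNAP-549-labelled MS2 coat protein was then added in twofold steps (0.7 or 1.5 nM to 3 µM; 0.8–1.5 h to 10–20 min per step) in 100 mM Tris-HCl pH 7.5, 80 mM KCl, 4 mM MgCl2, without or with constant ligand.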

[1] = input ligand: theophylline 20 uM
[2] = input ligand: theophylline 2 mM
[3] = input ligand: tryptophan 2.4 mM

Sequence	apparent KD of MS2 coat protein (input ligand: arginine 13.2 mM) [nM]	apparent KD of MS2 coat protein (input ligand: none) [nM]	apparent KD of MS2 coat protein [1] [nM]	apparent KD of MS2 coat protein [2] [nM]	apparent KD of MS2 coat protein [3] [nM]
UGUAUGGACUGAAGGAGCGCCUCAAACAUGAGGAUCACCCAUGUGGACAAAUAAGUCCUUGGGCAGGUAGGUCGCAGUCCAUACU [ArgBX 7 #StaticStem #MS2Late]	73.5	82.8	91.2	90.6	66.1
GGAUAGGACACGGCCGCCACUGCCUAGGAUACUAGAAACAUUUCCUCACAUGAGGAUCACCCAUGUAGGACCGGGUGUCCUAUCG	74.9		161	121	
AUUAUCAUGGUCAUAUAUAUAUCUUCAGAUACCAGACUAUAUUAAGUCCCUUGGCAGCUGUUACAUGAGGAUCACCCAUGUUAUA [JR_ExcTheophyA_Sub014]	53.9		76.1		102
AUGUCUGAGUCGGCCGCCACUGGGUGUGGGUGAUGCCGGAUGUUGUACAUGAGGAUCACCCAUGUCAGGACCGGGAUUCCCACGA [Receve]	6.2	10.4	12.7	8.73	10.2
GGAUAGAUAGGAGAUACCAGACACAUUAACAUGAGGAUCACCCAUGUGUCUGCACUAAGUGUCCCUUGGCAGCUCGGAGAUCUGA [Same State - Theophylline B]	34.2	45.9	44.2	30.6	31.9
AAUAACGUGAGGAUCACCCACGUAAAAGAUACCAGAGUGAUGAUCCUCCCUUGGCAGCUUAACGCUGAUUGAUUACAAUCAGCGA	49.5	58.7	123	213	49.6
UGUAUGUGAUCUGAUACCAGAGUGAAUAAACCUGAGGAUCACCCUGGUAGGCGAAAGCCACUCCCUUGGCAGCAGAUCGCAUACU	102	139	112	38.6	141
UGUAUGGACUGAAGGAGCGGGUAAAUAACCUGAGGAUCACCCAGGUAAAAGGCGAAAGCCACCCAGGUAGGUCGCAGUCCAUACU	10.6		13.7	12.7	11
GCUAGGUCAUCGGCCGCCACUAACGAUGGCUCCAACAUGAGGAUCACCCAUGUGCCACAUGCGCAUAGGACCGGGAUGACCUAGC [SSTB NP+V+V2 #3]	11.3		16.2	14.1	
ACGGAUCGGAAACGAUCCGCGGCAAGGGUACGAGGACCGGUACGGCCGCCACUCGGCUAACAUGAGGAUCACCCAUGUCCGAAGA [ETA NP+V+V2 #8]	41.9	60.7	59.7	72.2	72.2
UCGGACAUGAGGAUCACCCAUGUAAAUCCUCGAGGACCGGUACGGCCGCCACUCGAACGAGUGGCACGCGAGUGCGCACUCGCGU [aEa]	24.1		47.8	34	
UUAUUUAACGGAAGGAGCGCGGAUAAAAUAGUGGGUAAACAUGAGGAUCACCCAUGUAAACCGCAGGUAGGUCGCCGAUAUUUAU [AstrosEXyARgB#5]	21.5	43.1	48.8	33.2	35.9
GGGUAAGAUCCGGAUACCAGCGAACAUGAGGAUCACCCAUGUGACCUAAGAUAGGCUAAACGCCCUUGGCAGCCGAGAUAGCGUU [Same State Theophylline B GF 6]	27.2	41.3	34.2	30.7	39.5
AACAUGAGCACGGCCGCCACUCCAUGAACAUGAGGAUCACCCAUACACAUGAGGAUCACCCAUGUGAGGACCGGGUGUCCAUGUG [Exclusion Tryptophan B 2]	12.6		18.7	16.5	
GUUAUUAGAAAACUAAUAACAGUGGGUGAACGAGGACCGGUACGGCCGCCACUCGGACAUGAGGAUCACCCAUGUCCAUGUGAAA [AstrosExyTryA#4]	12.1		15.8	16.5	
UCGGCAGUGAACGAUACCAGCGUCACGUGGCCGGUGGUCACAUGAGGAUCACCCAUGUAACGCCCUUGGCAGCGUGCGCGUACCG [Zaancebi]	15.1		63.5		27.3

Sequence	apparent KD of MS2 coat protein (input ligand: arginine 13.2 mM) [nM]	apparent KD of MS2 coat protein (input ligand: none) [nM]	apparent KD of MS2 coat protein [1] [nM]	apparent KD of MS2 coat protein [2] [nM]	apparent KD of MS2 coat protein [3] [nM]
AUAAAUGGGUUAAUUAGUUUUAGGUCCAGUCGAGGACCGGUACGGCCGCCACUCGUCCCAAGUUACAUGAGGAUCACCCAUGUUA [JR_ExcTryptoA_Sub014]	33.8		52.5	91.9	
UCGUUUGAGGCGGCCGCCACUGGUCUCAUGGUCAACAUGAGGAUCACCCAUGUAUCUUAGUUAAGCAGGACCGGGCCUCGAGCGA [#18 Exclusion Tryptophan B]	38.9	72.7	105	95.6	32.3
GGGCCCGGGCGCGAGCCCGGGCCCAUUGAUACCAGUGAUAGAGAGCGCCCUUGGCAGCGAAUCCUAACAUGAGGAUCACCCAUGU [5.K]	37.5	46.3	95.2	83.9	56.6
AUAUAUACAUGAGGAUCACCCAUGUUAUUUCGAGGACCGGUACGGCCGCCACUCGAUAGAGUAGAAGUAACAUGUGUUAGUUGAU [JR_SSTryptoA_Sub014]	16.3		32.8	39.1	
GGCACCAGGAGAAGGAGCGUGAAGACAUGAGGAUCACCCAUGUAGAGGCCCGUACCGGGUUCGCAGGUAGGUCGCUCCUGGUGCC [#1 Same State - Arginine B Attempt #14 (HarryS)]	19.2	23	38.1	27.1	24.2
UCGCUCUGGGUGGAAUCCGGAGAUGUGGAAGGAGCGCUCGAAAGGGCAGGUAGGUCGCCAACGGACAUGAGGAUCACCCAUGUAC [#23 Same State - Arginine A]	29.4	25.4	37.5	39.8	49.2
UGUGUGUGACCAGGAAAUGGUCACACACAGCGAGGACCGGUACGGCCGCCACUCGGCCGUACAUGAGGAUCACCCAUGUCGGGUA [#1 Same State - Tryptophan A Attempt #9 (HarryS)]	99.6		961	1290	
GGGUACAUCGCGGCCGCCACUCAUGUAAAUUCAUGAGGAUCACCCAUGACGAUGGAGACAUCGGAGAGGACCGGGUGAUGUACCG	26.5	16.8	23	20.8	16.8
UAUAUAGAUGGAAGUUCUAUAGAUGCAGAAGGAGCGUAGGAAACUACAGGUAGGUCGCUGAGGUACAUGAGGAUCACCCAUGUAG [SSArg A #20 Slice of Pi]	14.3	26.4	40.5	26.4	22.5
GCACCAGGUACGGAUACCAGACGUUGCCAAUUGGGUGCACAUGAGGAUCACCCAUGUUCUGUCCCUUGGCAGCCGUACCUGGUGC [EThB NP+V+V2 #5]	10.2	10.1	13.5	73.2	9.12
AACAUGAGGAUCACCCAUGUUAAGUAUGAAGGAGCGUCGGAAACGACAGGUAGGUCGCAUACUUGGCCUUGUACUUCGUGUGUCU [#02 Exclusion - Arginine A]	14.2	14.3	17.9	14.4	14.7
CUGACAGACUCGGCCGCCACUGAUAGUAGGACAUGAGGAUCACCCAUGUAAACAAACCUCAUAGCCAGGACCGGGAGUCACGAAG [Same State Tryptophan B GF 21]	31	45.6	57.1	51.3	24.9
UGGGUACCGACGGCCGCCACUGAAUAUAGACAUGAGGAUCACCCAUGUAGAGAUCCUAGAAUAAACAGGACCGGGUCUGGUGCUA [Exclusion Tryptophane B GF5]	92.4		239	293	
CACAGUGCGAAAUUGAAUUCGCACGAUCCUCGAGGACCGGUACGGCCGCCACUCGCGCGGGUCGUACAUGAGGAUCACCCAUGUC [Zatiin]	41.3		419	477	
AAACGCCACGGAAGGAGCGACAUGAGGAUCACCCAUGUAGAAGUGGCGGAUGCACCCUCCUGUCAGGUAGGUCGCCGUGCGCCAA [XArg-B24]	17.1	21.2	39	29.7	22.4
